Data reported in PMC9287376.

Tests used:
Conditions in all cases: natural protein; chains chain; remark: other sources report otherwise
[1] = biological target: T1, wild-type trigger factor, P0A850; assay: native buffer, no denaturant
T1 chain: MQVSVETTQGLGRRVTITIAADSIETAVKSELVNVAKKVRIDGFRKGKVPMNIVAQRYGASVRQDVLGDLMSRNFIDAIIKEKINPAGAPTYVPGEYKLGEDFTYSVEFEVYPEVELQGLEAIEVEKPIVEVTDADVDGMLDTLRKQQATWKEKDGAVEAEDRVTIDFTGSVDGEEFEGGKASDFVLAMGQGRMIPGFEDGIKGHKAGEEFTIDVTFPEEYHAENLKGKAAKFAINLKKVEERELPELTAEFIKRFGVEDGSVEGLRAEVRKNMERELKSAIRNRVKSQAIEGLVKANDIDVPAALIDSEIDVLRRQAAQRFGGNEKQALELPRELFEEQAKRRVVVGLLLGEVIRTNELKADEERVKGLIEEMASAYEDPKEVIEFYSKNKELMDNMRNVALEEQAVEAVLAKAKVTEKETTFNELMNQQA

[2] = biological target: T1, wild-type trigger factor, P0A850; assay: 0.26 M GdnHCl
[3] = biological target: T1, wild-type trigger factor, P0A850; assay: 0.06 M GdnHCl

B1: wild-type trigger factor, P0A850 1-432 (protein)
chain: T1 chain
- Kd [1]: 18.4 µM
- Kd [2]: 76 µM
- Kd [3]: 29 µM
